# From publication doi:10.1101/2021.06.15.447100
# Columns and labels:
# [1] = target: BG505 SOSIP.664 (HIV-1 (clade A, BG505)); test: SEC
# [2] = target: C.1086 UFO gp140 (Uncleaved preFusion Optimized, no disulfide linkage between A501 and T605) (HIV-1 (clade C, C.1086)); test: negative stain electron microscopy
# [3] = target: C.1086 UFO gp140 (Uncleaved preFusion Optimized, no disulfide linkage between A501 and T605) (HIV-1 (clade C, C.1086)); test: SEC
# [4] = target: C.1086 SOSIP gp140 (HIV-1 (clade C, C.1086)); test: SEC
# [5] = target: C.1086 NFL gp140 (Native Flexibly Linked with I559P) (HIV-1 (clade C, C.1086)); test: SEC
substance,measurement,setting,value
BG505 SOSIP.664 (natural protein),stoichiometry N,[1],3
"C.1086 UFO gp140 (Uncleaved preFusion Optimized, no disulfide linkage between A501 and T605) (natural protein)",stoichiometry N,[2],3
same,stoichiometry N,[3],3
C.1086 SOSIP gp140 (natural protein),stoichiometry N,[4],3
C.1086 NFL gp140 (Native Flexibly Linked with I559P) (natural protein),stoichiometry N,[5],3
